Data as given in patent US20220305006A1 (University of California, published 2022).

Columns and labels:
Assay in all cases: cell-based or functional assay
[1] = target: Recombinant Human Cathepsin D (human, UniProt P07339 65-412)
[2] = target: BACE in CHO-7W cells (Chinese hamster ovary cells stably transfected with wildtype human APP)
[3] = target: BACE1 expressed from a transfected plasmid in 293T cells (NRG1 and PSGL1 assays)

Chain of Recombinant Human Cathepsin D (P07339 65-412): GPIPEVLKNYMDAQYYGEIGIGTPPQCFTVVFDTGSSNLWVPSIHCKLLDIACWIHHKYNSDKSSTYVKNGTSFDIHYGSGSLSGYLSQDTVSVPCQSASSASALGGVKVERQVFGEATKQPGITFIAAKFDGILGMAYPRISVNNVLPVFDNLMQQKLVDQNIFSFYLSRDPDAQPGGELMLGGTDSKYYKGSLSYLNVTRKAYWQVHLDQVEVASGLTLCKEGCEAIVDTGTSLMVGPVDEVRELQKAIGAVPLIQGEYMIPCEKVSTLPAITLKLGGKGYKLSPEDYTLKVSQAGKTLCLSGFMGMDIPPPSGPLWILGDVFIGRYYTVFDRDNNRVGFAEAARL

Binder: Ac-ALYPYFLPISAK-NH2 [Peptide 65007]
- Cat D activity (fluorogenic substrate), IC50 [1]: > 5 µM
- decrease of BACE cleavage product sAPPβ from CHO-7W cells, EC50 [2]: ~10 µM
- NRG1 cleavage by BACE in co-transfected 293T cells (secreted alkaline phosphatase), EC50 [3]: > 10 µM
- PSGL1 cleavage by BACE in co-transfected 293T cells (secreted alkaline phosphatase), EC50 [3]: > 10 µM
